Experimental findings from IntAct's records for PubMed 29039417 are described below.

B1: BBSome complex member BBS2 (Homo sapiens), Q9BXC9 (parent)
chain: MLLPVFTLKLRHKISPRMVAIGRYDGTHPCLAAATQTGKVFIHNPHTRNQHVSASRVFQSPLESDVSLLSINQAVSCLTAGVLNPELGYDALLVGTQTNLLAYDVYNNSDLFYREVADGANAIVLGTLGDISSPLAIIGGNCALQGFNHEGSDLFWTVTGDNVNSLALCDFDGDGKKELLVGSEDFDIRVFKEDEIVAEMTETEIVTSLCPMYGSRFGYALSNGTVGVYDKTSRYWRIKSKNHAMSIHAFDLNSDGVNELITGWSNGKVDARSDRTGEVIFKDNFSSAIAGVVEGDYRMDGHIQLICCSVDGEIRGYLPGTAEMRGNLMDTSAEQDLIRELSQKKQNLLLELRNYEENAKAELASPLNEADGHRGIIPANTRLHTTLSVSLGNETQTAHTELRISTSNDTIIRAVLIFAEGIFTGESHVVHPSIHNLSSSICIPIVPPKDVPVDLHLKAFVGYRSSTQFHVFESTRQLPRFSMYALTSLDPASEPISYVNFTIAERAQRVVVWLGQNFLLPEDTHIQNAPFQVCFTSLRNGGHLHIKIKLSGEITINTDDIDLAGDIIQSMASFFAIEDLQVEADFPVYFEELRKVLVKVDEYHSVHQKLSADMADHSNLIRSLLVGAEDARLMRDMKTMKSRYMELYDLNRDLLNGYKIRCNNHTELLGNLKAVNQAIQRAGRLRVGKPKNQVITACRDAIRSNNINTLFKIMRVGTASS
partner: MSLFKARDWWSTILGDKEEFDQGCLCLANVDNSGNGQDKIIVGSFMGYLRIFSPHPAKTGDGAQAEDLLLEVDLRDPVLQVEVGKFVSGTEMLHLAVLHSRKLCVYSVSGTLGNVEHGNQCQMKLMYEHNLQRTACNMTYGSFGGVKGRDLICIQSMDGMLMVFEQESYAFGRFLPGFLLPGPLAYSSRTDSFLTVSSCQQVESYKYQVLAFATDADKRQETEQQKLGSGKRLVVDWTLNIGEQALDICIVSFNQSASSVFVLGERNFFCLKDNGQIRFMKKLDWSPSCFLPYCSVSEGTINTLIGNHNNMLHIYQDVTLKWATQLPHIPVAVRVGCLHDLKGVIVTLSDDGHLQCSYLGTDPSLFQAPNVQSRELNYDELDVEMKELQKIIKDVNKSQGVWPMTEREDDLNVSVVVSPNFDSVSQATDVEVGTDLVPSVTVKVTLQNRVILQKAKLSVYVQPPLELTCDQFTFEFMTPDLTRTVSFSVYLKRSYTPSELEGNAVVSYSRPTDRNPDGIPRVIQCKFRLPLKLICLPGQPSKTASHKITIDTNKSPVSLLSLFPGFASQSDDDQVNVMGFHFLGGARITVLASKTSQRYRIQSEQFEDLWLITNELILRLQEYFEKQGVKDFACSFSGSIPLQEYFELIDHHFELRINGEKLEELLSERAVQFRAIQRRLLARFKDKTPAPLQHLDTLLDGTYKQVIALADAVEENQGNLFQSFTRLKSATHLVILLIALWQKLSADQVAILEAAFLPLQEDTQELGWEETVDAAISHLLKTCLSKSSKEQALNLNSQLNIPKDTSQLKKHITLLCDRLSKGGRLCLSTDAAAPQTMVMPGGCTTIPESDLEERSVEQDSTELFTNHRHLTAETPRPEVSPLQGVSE
B2: BBSome complex member BBS4 (Homo sapiens), Q96RK4 (parent)
chain: MAEERVATRTQFPVSTESQKPRQKKAPEFPILEKQNWLIHLHYIRKDYEACKAVIKEQLQETQGLCEYAIYVQALIFRLEGNIQESLELFQTCAVLSPQSADNLKQVARSLFLLGKHKAAIEVYNEAAKLNQKDWEISHNLGVCYIYLKQFNKAQDQLHNALNLNRHDLTYIMLGKIHLLEGDLDKAIEVYKKAVEFSPENTELLTTLGLLYLQLGIYQKAFEHLGNALTYDPTNYKAILAAGSMMQTHGDFDVALTKYRVVACAVPESPPLWNNIGMCFFGKKKYVAAISCLKRANYLAPFDWKILYNLGLVHLTMQQYASAFHFLSAAINFQPKMGELYMLLAVALTNLEDIENAKRAYAEAVHLDKCNPLVNLNYAVLLYNQGEKKNALAQYQEMEKKVSLLKDNSSLEFDSEMVEMAQKLGAALQVGEALVWTKPVKDPKSKHQTTSTSKPASFQQPLGSNQALGQAMSSAAAYRTLPSGAGGTSQFTKPPSLPLEPEPAVESSPTETSEQIREK
partner: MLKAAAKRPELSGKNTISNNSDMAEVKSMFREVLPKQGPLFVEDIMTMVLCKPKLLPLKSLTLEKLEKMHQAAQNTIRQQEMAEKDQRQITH

In one experiment the parent is B1. Conditions: with pthb1_human BBS9, Q3SYG4.
As for L416K, the “effect of a mutation on the interaction” value is “with no effect”.

On to V453A, for which the “effect of a mutation on the interaction” value was “with no effect”.

In the case of H665K, the “effect of a mutation on the interaction” value is “with no effect”.

With I568K, the “effect of a mutation on the interaction” value is given as “with no effect”.

Consider M329K, for which the “effect of a mutation on the interaction” value is “with no effect”.

Turning to T385E, the “effect of a mutation on the interaction” value is on record as “with no effect”.

Regarding S704A, the “effect of a mutation on the interaction” value is reported as “with no effect”.

Consider H428A, for which the “effect of a mutation on the interaction” value is given as “with no effect”.

For the variant I377R, the “effect of a mutation on the interaction” value was “disrupting interaction strength”.

With I621E, the “effect of a mutation on the interaction” value was “with no effect”.

As to G542K, the “effect of a mutation on the interaction” value is reported as “with no effect”.

Consider L383K, for which the “effect of a mutation on the interaction” value is “with no effect”.

In the case of E505A, the “effect of a mutation on the interaction” value was “with no effect”.

As for T709A, the “effect of a mutation on the interaction” value is “with no effect”.

Consider T424K, for which the “effect of a mutation on the interaction” value is on record as “with no effect”.

Take I441E: the “effect of a mutation on the interaction” value is reported as “with no effect”.

On to A572K, for which the “effect of a mutation on the interaction” value was “with no effect”.

For the variant E357A, the “effect of a mutation on the interaction” value was “with no effect”.

For the variant T536K, the “effect of a mutation on the interaction” value is on record as “with no effect”.

Turning to P491E, the “effect of a mutation on the interaction” value is recorded as “with no effect”.

Take S433A: the “effect of a mutation on the interaction” value is reported as “with no effect”.

On to G515R, for which the “effect of a mutation on the interaction” value is listed as “disrupting interaction strength”.

Consider G515A, for which the “effect of a mutation on the interaction” value is “with no effect”.

Turning to H525E, the “effect of a mutation on the interaction” value was “with no effect”.

On to M634K, for which the “effect of a mutation on the interaction” value is listed as “with no effect”.

As for L520A, the “effect of a mutation on the interaction” value was “with no effect”.

With S440A, the “effect of a mutation on the interaction” value is recorded as “with no effect”.

Turning to E334A, the “effect of a mutation on the interaction” value is on record as “with no effect”.

Regarding D559A, the “effect of a mutation on the interaction” value is on record as “with no effect”.

For the variant I496E, the “effect of a mutation on the interaction” value was “with no effect”.

As for F531K, the “effect of a mutation on the interaction” value is reported as “with no effect”.

G627E: the “effect of a mutation on the interaction” value is on record as “with no effect”.

Consider E351K, for which the “effect of a mutation on the interaction” value is “with no effect”.

For E351A, the “effect of a mutation on the interaction” value is “with no effect”.

For D450A, the “effect of a mutation on the interaction” value is reported as “with no effect”.

For the variant D450L, the “effect of a mutation on the interaction” value is on record as “disrupting interaction strength”.

As to M571A, the “effect of a mutation on the interaction” value was “with no effect”.

As to R413K, the “effect of a mutation on the interaction” value was “disrupting interaction strength”.

Turning to S365A, the “effect of a mutation on the interaction” value is listed as “with no effect”.

For the variant F423E, the “effect of a mutation on the interaction” value is “with no effect”.

Regarding I567E, the “effect of a mutation on the interaction” value is “with no effect”.

On to V461M, for which the “effect of a mutation on the interaction” value is “disrupting interaction strength”.

As for L668A, the “effect of a mutation on the interaction” value is reported as “with no effect”.

T696A: the “effect of a mutation on the interaction” value is “with no effect”.

As for L633A, the “effect of a mutation on the interaction” value is “with no effect”.

Take G688E: the “effect of a mutation on the interaction” value is recorded as “with no effect”.

Turning to L478K, the “effect of a mutation on the interaction” value is given as “disrupting interaction strength”.

On to L478A, for which the “effect of a mutation on the interaction” value was “disrupting interaction strength”.

For H435A, the “effect of a mutation on the interaction” value was “with no effect”.

With N619A, the “effect of a mutation on the interaction” value is reported as “with no effect”.

Regarding F535E, the “effect of a mutation on the interaction” value is “disrupting interaction strength”.

Regarding G326E, the “effect of a mutation on the interaction” value is recorded as “with no effect”.

On to L710A, for which the “effect of a mutation on the interaction” value is recorded as “with no effect”.

In the case of I577E, the “effect of a mutation on the interaction” value is “with no effect”.

As to I577A, the “effect of a mutation on the interaction” value is reported as “with no effect”.

For T555K, the “effect of a mutation on the interaction” value is given as “with no effect”.

On to R643A, for which the “effect of a mutation on the interaction” value is given as “with no effect”.

Take H456K: the “effect of a mutation on the interaction” value was “with no effect”.

On to L391A, for which the “effect of a mutation on the interaction” value is given as “with no effect”.

As for G657E, the “effect of a mutation on the interaction” value is on record as “with no effect”.

As to D409E, the “effect of a mutation on the interaction” value is recorded as “with no effect”.

Turning to H543E, the “effect of a mutation on the interaction” value is on record as “with no effect”.

As for V446E, the “effect of a mutation on the interaction” value is recorded as “with no effect”.

Regarding K449E, the “effect of a mutation on the interaction” value is “with no effect”.

Consider A564E, for which the “effect of a mutation on the interaction” value is reported as “with no effect”.

In the case of T475A, the “effect of a mutation on the interaction” value was “with no effect”.

Turning to A576K, the “effect of a mutation on the interaction” value is on record as “with no effect”.

On to I445T, for which the “effect of a mutation on the interaction” value is “disrupting interaction strength”.

On to Q532K, for which the “effect of a mutation on the interaction” value is given as “with no effect”.

On to N408E, for which the “effect of a mutation on the interaction” value was “with no effect”.

In the case of T718A, the “effect of a mutation on the interaction” value was “with no effect”.

Regarding A414E, the “effect of a mutation on the interaction” value is “with no effect”.

As for T487A, the “effect of a mutation on the interaction” value is on record as “with no effect”.

Turning to T487E, the “effect of a mutation on the interaction” value is given as “with no effect”.

For N327A, the “effect of a mutation on the interaction” value is on record as “with no effect”.

The variants in another experiment derive from B2. Conditions: with bbip1_human BBIP1, A8MTZ0.
In the case of N297A, the “effect of a mutation on the interaction” value is “with no effect”.

Consider N297E, for which the “effect of a mutation on the interaction” value is “with no effect”.

Take N297K: the “effect of a mutation on the interaction” value is recorded as “with no effect”.

S291E: the “effect of a mutation on the interaction” value was “with no effect”.

In the case of S291A, the “effect of a mutation on the interaction” value was “with no effect”.

For S291K, the “effect of a mutation on the interaction” value is “with no effect”.

Take C292R: the “effect of a mutation on the interaction” value is “disrupting interaction strength”.

In the case of C292A, the “effect of a mutation on the interaction” value was “with no effect”.

In the case of C292E, the “effect of a mutation on the interaction” value is “with no effect”.

Turning to C292K, the “effect of a mutation on the interaction” value was “with no effect”.

On to W273E, for which the “effect of a mutation on the interaction” value was “with no effect”.

Take W273K: the “effect of a mutation on the interaction” value was “with no effect”.

In the case of W273A, the “effect of a mutation on the interaction” value is “with no effect”.

A288E: the “effect of a mutation on the interaction” value was “with no effect”.
